Assay results published in paper PMC4838342 (Nucleic Acids Research, 2015).

B1: Sim3 (as used in gel filtration) (natural protein, Schizosaccharomyces pombe, UniProt Q9USQ4 1-396, looked up)
chain: MSSDTKTLENSKGNSATDADTKNPSSSDSRAIEQLVTQGNMAYAQKNYEEAVDKYGQALMQSESIHGSESLENRNVLWLYGKSLFQIAIENSQVLGNALGAKESVSQATESFEEPEAIGSFTFSGQKIENKYTVNEENSSIAHPEKESEEKETNEASPASEEDEDDFNVAWEVLDLTRVMQSKAVDAYPDSKDEKIRLADIYDLLGELSLEIENFSQASQDLKTALEWKEKVYNVSNNTLLSEAHYKLALALEFTNPEDPSNKSRACEHVEKAAEILKNVLNERENEVTDKKGKGKQKAEESTLTSDLENLREMLSELEQKTLDLKHGAPSLEEAVMSKMHESSLLSKDSSSLAQAVAEAVKNANDLGGLVKRKRTKQEVTSSSQKEGPKDKKKKD
notes: source: bacteria, purified
B2: sNASP (41–330, Δ101–159) (domain or fragment)
chain: SEAKKLLGLGQKHLVMGDIPAAVNAFQEAASLLGKKYGETANECGEAFFFYGKSLLELARLENKSLQENEEEEIGNLELAWDMLDLAKIIFKRQETKEAQLYAAQAHLKLGEVSVESENYVQAVEEFQSCLNLQEQYLEAHDRLLAETHYQLGLAYGYNSQYDEAVAQFSKSIEVIENRMAVLNEQVKEAEGSSAEYKKEIEELKELLPEIREKIEDAKESQRSGNVAELA
modifications: 15N (and 13C, 2H) isotope labelled

Tests used:
MBP H3 116–135 = MBP H3 116–135 (human); assay: SEC; analytical gel filtration, Superdex S200 10/300 GL, 20 mM Hepes-KOH pH 7.5, 200 mM sodium chloride; fractions on SDS-PAGE, Coomassie; settings: both partners purified
H3 115–135 peptide = assay: NMR titration; 1H-15N HSQC of 15N-labelled sNASP (41–330, Δ101–159) titrated with H3 115–135 peptide in PBS; 298 K; assignments in 20 mM NaPO4 pH 7.0, 100 mM NaCl, 5 mM β-mercaptoethanol; settings: both partners purified
Chain of H3 115–135 peptide (peptide, as listed by the source): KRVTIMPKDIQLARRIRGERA

Binder | binding result (MBP H3 116–135) | binding result (H3 115–135 peptide)
B1 | binds | –
B2 | – | binds
